Laboratory results: article PMC3931076, “Crystal Structures of Leukotriene C4 Synthase in Complex with Product Analogs” (The Journal of Biological Chemistry, 2013)

Biological target: the molecule itself
Assay: crystal structure; sitting drop vapor diffusion at room temperature, 3.5 mg/ml protein with 1 mM GSH; 1.8-2.2 M NH4SO4, 0.2 M NaCl, 0.1 M sodium cacodylate pH 6.1-6.8; analog I soaked, analogs II and III co-crystallised; space group F23

B1: Leukotriene C4 synthase (human, wild type) (enzyme)
chain: MKDEVALLAAVTLLGVLLQAYFSLQVISARRAFRVSPPLTTGPPEFERVYRAQVNCSEYFPLFLATLWVAGIFFHEGAAALCGLVYLFARLRYFQGYARSAQLRLAPLYASARALWLLVALAALGLLAHFLPAALRAALLGRLRTLLPWA
notes: Leukotriene C4 synthase, human, wild type; integral membrane protein in dodecyl maltoside; Expression and purification 'essentially as described (15)'; The trimer arises by crystal symmetry (space group F23); also called LTC4S; LTC4 synthase
stoichiometry N: 3
